The results in this text go back to IntAct's records for PubMed 15020713.

First the molecules themselves.
B1: EH domain-containing protein 1 (Homo sapiens), Q9H4M9 (parent)
chain: MFSWVSKDARRKKEPELFQTVAEGLRQLYAQKLLPLEEHYRFHEFHSPALEDADFDNKPMVLLVGQYSTGKTTFIRHLIEQDFPGMRIGPEPTTDSFIAVMHGPTEGVVPGNALVVDPRRPFRKLNAFGNAFLNRFMCAQLPNPVLDSISIIDTPGILSGEKQRISRGYDFAAVLEWFAERVDRIILLFDAHKLDISDEFSEVIKALKNHEDKIRVVLNKADQIETQQLMRVYGALMWSLGKIINTPEVVRVYIGSFWSHPLLIPDNRKLFEAEEQDLFKDIQSLPRNAALRKLNDLIKRARLAKVHAYIISSLKKEMPNVFGKESKKKELVNNLGEIYQKIEREHQISPGDFPSLRKMQELLQTQDFSKFQALKPKLLDTVDDMLANDIARLMVMVRQEESLMPSQVVKGGAFDGTMNGPFGHGYGEGAGEGIDDVEWVVGKDKPTYDEIFYTLSPVNGKITGANAKKEMVKSKLPNTVLGKIWKLADVDKDGLLDDEEFALANHLIKVKLEGHELPADLPPHLVPPSKRRHE
partner: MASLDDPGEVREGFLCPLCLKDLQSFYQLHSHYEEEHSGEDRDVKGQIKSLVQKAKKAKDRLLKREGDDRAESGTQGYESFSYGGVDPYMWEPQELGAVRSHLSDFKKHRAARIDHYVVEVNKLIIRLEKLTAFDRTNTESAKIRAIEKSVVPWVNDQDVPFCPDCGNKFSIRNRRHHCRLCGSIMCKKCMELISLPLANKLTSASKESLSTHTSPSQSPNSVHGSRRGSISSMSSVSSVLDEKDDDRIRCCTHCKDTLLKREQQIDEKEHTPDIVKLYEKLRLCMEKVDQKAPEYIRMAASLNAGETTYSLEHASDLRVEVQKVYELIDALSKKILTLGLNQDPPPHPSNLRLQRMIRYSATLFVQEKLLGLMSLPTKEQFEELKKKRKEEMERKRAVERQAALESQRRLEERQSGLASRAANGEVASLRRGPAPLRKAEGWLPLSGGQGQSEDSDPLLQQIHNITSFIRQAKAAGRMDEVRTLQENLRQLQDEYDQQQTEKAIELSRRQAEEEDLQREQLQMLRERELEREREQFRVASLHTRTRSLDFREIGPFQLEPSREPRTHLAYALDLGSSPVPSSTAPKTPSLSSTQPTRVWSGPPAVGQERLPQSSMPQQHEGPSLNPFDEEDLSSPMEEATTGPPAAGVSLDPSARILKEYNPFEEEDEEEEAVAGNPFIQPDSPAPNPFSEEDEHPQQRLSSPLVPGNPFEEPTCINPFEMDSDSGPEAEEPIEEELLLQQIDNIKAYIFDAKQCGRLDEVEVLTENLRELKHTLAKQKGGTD
B2: Rabenosyn-5 (Homo sapiens), Q9H1K0 (parent)
chain: B1 partner
partner: B1 chain

The variants in one assay derive from B1. To be noted: with rbns5_human RBSN.
W485A: the “effect of a mutation on the interaction” value is on record as “disrupting interaction”.

The variants in a further assay derive from B2. The settings on record: with ehd1_human EHD1, Q9H4M9.
Take N626A;F628A: the “effect of a mutation on the interaction” value is listed as “decreasing interaction strength”.
For the variant N662A;F664A, the “effect of a mutation on the interaction” value was “decreasing interaction strength”.
In the case of N626A;F628A;N662A;F664A, the “effect of a mutation on the interaction” value was “disrupting interaction strength”.
